Test results from patent US20030077318A1.
Blank lines part the entries; values can stand above or below the substance they belong to.

What was measured:
[1] = biological target: L^d on transfected Drosophila S2 (fly) cells with p2Ca peptide (mouse) (UniProt P01887); assay: cell-based or functional assay
[2] = biological target: L^d on transfected Drosophila S2 (fly) cells with QL9 peptide (mouse) (UniProt P01887); assay: cell-based or functional assay
[3] = biological target: recombinant biotinylated L^d immobilized on avidin-coated sheep red blood cells (mouse) (UniProt P01897); assay: flow cytofluorometry of L^d on avidin-coated SRBC

IL-2 Production (Day 2), ^3HTdR incorporation of CTLL; L^d + B7.1 cells combined with L^d ICAM-1 cells [1]: 300 cpm
IL-2 Production (Day 2), ^3HTdR incorporation of CTLL; fly cells expressing L^d [1]: 200 cpm
IL-2 Production (Day 2), ^3HTdR incorporation of CTLL; fly cells expressing L^d + B7.1 [1]: 200 cpm
IL-2 Production (Day 2), ^3HTdR incorporation of CTLL; fly cells expressing L^d + B7.1 + ICAM-1 [1]: 64600 cpm
IL-2 Production (Day 2), ^3HTdR incorporation of CTLL; fly cells expressing L^d + ICAM-1 [1]: 100 cpm
Proliferation (Day 3), ^3HTdR incorporation; L^d + B7.1 cells combined with L^d ICAM-1 cells [1]: 1500 cpm
Proliferation (Day 3), ^3HTdR incorporation; fly cells expressing L^d [1]: 200 cpm
Proliferation (Day 3), ^3HTdR incorporation; fly cells expressing L^d + B7.1 [1]: 300 cpm
Proliferation (Day 3), ^3HTdR incorporation; fly cells expressing L^d + B7.1 + ICAM-1 [1]: 142000 cpm
Proliferation (Day 3), ^3HTdR incorporation; fly cells expressing L^d + ICAM-1 [1]: 1500 cpm
IL-2 Production (Day 2), ^3HTdR incorporation of CTLL; L^d + B7.1 cells combined with L^d ICAM-1 cells [2]: 500 cpm
IL-2 Production (Day 2), ^3HTdR incorporation of CTLL; fly cells expressing L^d [2]: 100 cpm
IL-2 Production (Day 2), ^3HTdR incorporation of CTLL; fly cells expressing L^d + B7.1 [2]: 400 cpm
IL-2 Production (Day 2), ^3HTdR incorporation of CTLL; fly cells expressing L^d + B7.1 + ICAM-1 [2]: 159000 cpm
IL-2 Production (Day 2), ^3HTdR incorporation of CTLL; fly cells expressing L^d + ICAM-1 [2]: 200 cpm
Proliferation (Day 3), ^3HTdR incorporation; L^d + B7.1 cells combined with L^d ICAM-1 cells [2]: 133000 cpm
Proliferation (Day 3), ^3HTdR incorporation; fly cells expressing L^d [2]: 200 cpm
Proliferation (Day 3), ^3HTdR incorporation; fly cells expressing L^d + B7.1 [2]: 60900 cpm
Proliferation (Day 3), ^3HTdR incorporation; fly cells expressing L^d + B7.1 + ICAM-1 [2]: 264000 cpm
Proliferation (Day 3), ^3HTdR incorporation; fly cells expressing L^d + ICAM-1 [2]: 73900 cpm
Substance: 2C T-cell receptor (TCR), on CD8+ lymph node T cells of 2C TCR transgenic mice

percent of cells labeled [3]: 99.8%
Substance: monoclonal antibody 30.5.7 (anti-L^d)
